The source of these data is publication PMC3597514.

Assay [1] has as its target NbSPL6-Yc (N. benthamiana). The assay is described as follows: split reporter (BiFC, NanoBiT); as a5, but with the non-eliciting p50-Ob-tCFP in place of tCFP-p50-U1; percent of cells as the ratio to the cells seen with tCFP-p50-U1.
Assay [2] deals with NbSPL6-Yc (N. benthamiana). The assay is described as follows: split reporter (BiFC, NanoBiT); as a5, but with tCFP alone in place of tCFP-p50-U1.

B1: gN-Yn (receptor)
chain: MASSSSSSRWSYDVFLSFRGEDTRKTFTSHLYEVLNDKGIKTFQDDKRLEYGATIPGELCKAIEESQFAIVVFSENYATSRWCLNELVKIMECKTRFKQTVIPIFYDVDPSHVRNQKESFAKAFEEHETKYKDDVEGIQRWRIALNEAANLKGSCDNRDKTDADCIRQIVDQISSKLCKISLSYLQNIVGIDTHLEKIESLLEIGINGVRIMGIWGMGGVGKTTIARAIFDTLLGRMDSSYQFDGACFLKDIKENKRGMHSLQNALLSELLREKANYNNEEDGKHQMASRLRSKKVLIVLDDIDNKDHYLEYLAGDLDWFGNGSRIIITTRDKHLIEKNDIIYEVTALPDHESIQLFKQHAFGKEVPNENFEKLSLEVVNYAKGLPLALKVWGSLLHNLRLTEWKSAIEHMKNNSYSGIIDKLKISYDGLEPKQQEMFLDIACFLRGEEKDYILQILESCHIGAEYGLRILIDKSLVFISEYNQVQMHDLIQDMGKYIVNFQKDPGERSRLWLAKEVEEVMSNNTGTMAMEAIWVSSYSSTLRFSNQAVKNMKRLRVFNMGRSSTHYAIDYLPNNLRCFVCTNYPWESFPSTFELKMLVHLQLRHNSLRHLWTETKHLPSLRRIDLSWSKRLTRTPDFTGMPNLEYVNLYQCSNLEEVHHSLGCCSKVIGLYLNDCKSLKRFPCVNVESLEYLGLRSCDSLEKLPEIYGRMKPEIQIHMQGSGIRELPSSIFQYKTHVTKLLLWNMKNLVALPSSICRLKSLVSLSVSGCSKLESLPEEIGDLDNLRVFDASDTLILRPPSSIIRLNKLIILMFRGFKDGVHFEFPPVAEGLHSLEYLNLSYCNLIDGGLPEEIGSLSSLKKLDLSRNNFEHLPSSIAQLGALQSLDLKDCQRLTQLPELPPELNELHVDCHMALKFIHYLVTKRKKLHRVKLDDAHNDTMYNLFAYTMFQNISSMRHDISASDSLSLTVFTGQPYPEKIPSWFHHQGWDSSVSVNLPENWYIPDKFLGFAVCYSRSLIDTTAHLIPVCDDKMSRMTQKLALSECDTESSNYSEWDIHFFFVPFAGLWDTSKANGKTPNDYGIIRLSFSGEEKMYGLRLLYKEGPEVNALLQMRENSNEPTEHSTGIRRTQYNNRTSFYELING
As for B1, the percent of cells with citrine fluorescence (with p50-Ob-tCFP) (% of the cells) in assay [1] amounted to 13. For the same molecule, the percent of cells with citrine fluorescence (with tCFP alone) (% of the cells) in assay [2] came to 10.
